Measurements taken from publication PMC4932919, “Structural and functional studies of the glycoside hydrolase family 3 β-glucosidase Cel3A from the moderately thermophilic fungus Rasamsonia emersonii” (Acta Crystallographica. Section D, Structural Biology, 2016).
Each block holds one molecule with its values, some of them ahead of it.

Columns and labels:
[1] = biological target: T1, HjCel3A (Trichoderma reesei, UniProt Q12715); experiment: differential scanning calorimetry; assay type: binding; conditions: 1000 µM; 1 mM glucose; 10 mM sodium acetate pH 5.0; Tm without glucose 77.6 °C; scan rate 200°C/h; irreversible unfolding
T1 construct: gene bgl1
T1 sequence (Q12715 20-744): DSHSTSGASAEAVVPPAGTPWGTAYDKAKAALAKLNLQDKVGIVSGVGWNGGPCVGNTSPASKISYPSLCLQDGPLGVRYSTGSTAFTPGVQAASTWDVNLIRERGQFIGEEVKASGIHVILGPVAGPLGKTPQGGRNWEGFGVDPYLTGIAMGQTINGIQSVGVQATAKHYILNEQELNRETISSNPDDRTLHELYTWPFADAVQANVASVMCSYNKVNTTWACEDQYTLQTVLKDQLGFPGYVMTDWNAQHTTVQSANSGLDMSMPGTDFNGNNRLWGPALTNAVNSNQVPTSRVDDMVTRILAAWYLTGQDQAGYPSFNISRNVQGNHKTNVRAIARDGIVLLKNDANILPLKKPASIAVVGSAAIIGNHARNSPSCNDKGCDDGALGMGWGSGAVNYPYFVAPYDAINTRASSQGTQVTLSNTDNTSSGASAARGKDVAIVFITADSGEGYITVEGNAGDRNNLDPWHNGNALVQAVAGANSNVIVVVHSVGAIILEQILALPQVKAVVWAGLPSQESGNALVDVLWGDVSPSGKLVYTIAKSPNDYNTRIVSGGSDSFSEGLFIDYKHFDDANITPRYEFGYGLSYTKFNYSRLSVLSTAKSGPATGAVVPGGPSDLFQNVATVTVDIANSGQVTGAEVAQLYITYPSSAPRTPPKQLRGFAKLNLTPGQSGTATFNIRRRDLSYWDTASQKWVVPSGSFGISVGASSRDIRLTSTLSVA
Source text: differential scanning calorimetry on HjCel3A

[2] = biological target: β-glucosidase Cel3A from Rasamsonia emersonii (Rasamsonia emersonii); experiment: SEC; gel-filtration characterization of purified ReCel3A; conditions of this run not told
[3] = substrate: O=[N+]([O-])c1ccc(O[C@@H]2O[C@H](CO)[C@@H](O)[C@H](O)[C@H]2O)cc1; experiment: purified protein; conditions: 100 mM phosphate pH 5.0, 37°C
[4] = substrate: O=[N+]([O-])c1ccc(O[C@@H]2OC[C@@H](O)[C@H](O)[C@H]2O)c(Cl)c1; experiment: chromogenic substrate kinetics (method for CNPX not described); assay type: biochemical, Rasamsonia emersonii; conditions: conditions for CNPX not stated, other chromogenic substrates pH 5.0, 37°C
[5] = substrate: O=[N+]([O-])c1ccc(O[C@@H]2O[C@H](CO)[C@@H](O)[C@H](O)[C@H]2O)c(Cl)c1; experiment: purified protein; assay type: biochemical, Rasamsonia emersonii; conditions: 100 mM phosphate pH 5.0, 37°C

T m (°C) [1]: 79.0 °C
Molecule: OC[C@H]1OC(O)[C@H](O)[C@@H](O)[C@@H]1O (some centres unmarked) [glucose]

stoichiometry N [2]: 2
Molecule: β-glucosidase Cel3A from Rasamsonia emersonii (enzyme)

B1: ReCel3A (Rasamsonia emersonii) (protein)
chain: NLAYSPPFYPSPWANGQGDWAEAYQKAVQFVSQLTLAEKVNLTTGTGWEQDRCVGQVGSIPRLGFPGLCMQDSPLGVRDTDYNSAFPAGVNVAATWDRNLAYRRGVAMGEEHRGKGVDVQLGPVAGPLGRSPDAGRNWEGFAPDPVLTGNMMASTIQGIQDAGVIACAKHFILYEQEHFRQGAQDGYDISDSISANADDKTMHELYLWPFADAVRAGVGSVMCSYNQVNNSYACSNSYTMNKLLKSELGFQGFVMTDWGGHHSGVGSALAGLDMSMPGDIAFDSGTSFWGTNLTVAVLNGSIPEWRVDDMAVRIMSAYYKVGRDRYSVPINFDSWTLDTYGPEHYAVGQGQTKINEHVDVRGNHAEIIHEIGAASAVLLKNKGGLPLTGTERFVGVFGKDAGSNPWGVNGCSDRGCDNGTLAMGWGSGTANFPYLVTPEQAIQREVLSRNGTFTGITDNGALAEMAAAASQADTCLVFANADSGEGYITVDGNEGDRKNLTLWQGADQVIHNVSANCNNTVVVLHTVGPVLIDDWYDHPNVTAILWAGLPGQESGNSLVDVLYGRVNPGKTPFTWGRARDDYGAPLIVKPNNGKGAPQQDFTEGIFIDYRRFDKYNITPIYEFGFGLSYTTFEFSQLNVQPINAPPYTPASGFTKAAQSFGQPSNASDNLYPSDIERVPLYIYPWLNSTDLKASANDPDYGLPTEKYVPPNATNGDPQPIDPAGGAPGGNPSLYEPVARVTTIITNTGKVTGDEVPQLYVSLGGPDDAPKVLRGFDRITLAPGQQYLWTTTLTRRDISNWDPVTQNWVVTNYTKTIYVGNSSRNLPLQAPLKPYPGI
notes: secreted mature protein, signal peptide 1-20 removed; codon-optimized gene expressed in Hypocrea jecorina RL-P37 derivative with four cellulases deleted; no tag; N-glycosylated; dimer in solution; visible residues Asp21-Pro855
Km [3]: 0.40 mM
kcat [3]: 5.4 s⁻¹
kcat/Km [3]: 14000 M⁻¹ s⁻¹
Km [4]: 0.66 mM
kcat [4]: 0.23 s⁻¹
kcat/Km [4]: 350 M⁻¹ s⁻¹
Km [5]: 0.40 mM
kcat [5]: 14 s⁻¹
kcat/Km [5]: 36000 M⁻¹ s⁻¹
